PMC7064778
Like-named read-outs stand apart in the source and are kept apart here.

Experiments:
[1] = molecular target: PyoS5_(1–315) (P. aeruginosa) (UniProt Q9I4Y4); assay: SPR
[2] = molecular target: PyoS5_(1–315) (P. aeruginosa) (UniProt Q9I4Y4); assay: SPR; remark: listed apart in the source

TonB1_(109–342) (domain or fragment) gave a Kd [1] of 241 nM and a Kd [2] of 230 nM.
